The record followed here is patent US20250171562A1 (ALK ABELL, published 2025).

B1: NIgG4A1A1(G4S)3 (Fc fusion)
chain 1: EVQLLESGGGLVQPGGSLRLSCAASGFTFGNYDMAWVRQAPGKRPEWVSSIDTGGDITHYADSVKGRFTISRDNAKNTLYLQMNSLRPEDTAVYWCATDEEYALGPNEFDYYGQGTLVTVSSGGGGSGGGGSGGGGSGPPCPPCPAPEFLGGPSVFLFPPKPKDTLMISRTPEVTCVVVDVSQEDPEVQFNWYVDGVEVHNAKTKPREEQFNSTYRVVSVLTVLHQDWLNGKEYKCKVSNKGLPSSIEKTISKAKGQPREPQVYTLPPCQEEMTKNQVSLWCLVKGFYPSDIAVEWESNGQPENNYKTTPPVLDSDGSFFLYSRLTVDKSRWQEGNVFSCSVMHEALHNHYTQKSLSLSLGK
chain 2: B1 chain 1 with Y264C, C269S, W281S, L283A, Y322V
B2: CIgE4A1A1(GS)2 (Fc fusion)
chain 1: GPPCPPCPAPEFLGGPSVFLFPPKPKDTLMISRTPEVTCVVVDVSQEDPEVQFNWYVDGVEVHNAKTKPREEQFNSTYRVVSVLTVLHQDWLNGKEYKCKVSNKGLPSSIEKTISKAKGQPREPQVYTLPPCQEEMTKNQVSLWCLVKGFYPSDIAVEWESNGQPENNYKTTPPVLDSDGSFFLYSRLTVDKSRWQEGNVFSCSVMHEALHNHYTQKSLSLSLGKGGGGSGGGGSEVQLLESGGGLVQPGGSLRLSCAASGFTFGNYDMAWVRQAPGKRPEWVSSIDTGGDITHYADSVKGRFTISRDNAKNTLYLQMNSLRPEDTAVYWCATDEEYALGPNEFDYYGQGTLVTVSS
chain 2: B2 chain 1 with Y127C, C132S, W144S, L146A, Y185V
notes: also called CIgG4A1A1(G4S)2
B3: CIgG4A1A1(RS) (Fc fusion)
chain 1: GPPCPPCPAPEFLGGPSVFLFPPKPKDTLMISRTPEVTCVVVDVSQEDPEVQFNWYVDGVEVHNAKTKPREEQFNSTYRVVSVLTVLHQDWLNGKEYKCKVSNKGLPSSIEKTISKAKGQPREPQVYTLPPCQEEMTKNQVSLWCLVKGFYPSDIAVEWESNGQPENNYKTTPPVLDSDGSFFLYSRLTVDKSRWQEGNVFSCSVMHEALHNHYTQKSLSLSLGKRSEVQLLESGGGLVQPGGSLRLSCAASGFTFGNYDMAWVRQAPGKRPEWVSSIDTGGDITHYADSVKGRFTISRDNAKNTLYLQMNSLRPEDTAVYWCATDEEYALGPNEFDYYGQGTLVTVSS
chain 2: B3 chain 1 with Y127C, C132S, W144S, L146A, Y185V
B4: CIgE4A1A1(GS)1 (Fc fusion)
chain 1: GPPCPPCPAPEFLGGPSVFLFPPKPKDTLMISRTPEVTCVVVDVSQEDPEVQFNWYVDGVEVHNAKTKPREEQFNSTYRVVSVLTVLHQDWLNGKEYKCKVSNKGLPSSIEKTISKAKGQPREPQVYTLPPCQEEMTKNQVSLWCLVKGFYPSDIAVEWESNGQPENNYKTTPPVLDSDGSFFLYSRLTVDKSRWQEGNVFSCSVMHEALHNHYTQKSLSLSLGKGGGGSEVQLLESGGGLVQPGGSLRLSCAASGFTFGNYDMAWVRQAPGKRPEWVSSIDTGGDITHYADSVKGRFTISRDNAKNTLYLQMNSLRPEDTAVYWCATDEEYALGPNEFDYYGQGTLVTVSS
chain 2: B4 chain 1 with Y127C, C132S, W144S, L146A, Y185V
notes: label printed with IgE4/(GS); also called CIgG4A1A1(G4S)1
B5: NIgG4B1A2(G4S)1 (Fc fusion)
chain 1: QVQLQESGGGLVQTGGSLRLSCAVHGRTFSNTGMGWFRQAPGNERQFVAIISPSGTSTYYADSVKGRFTISRDPAKNTVYLQMNSLKMDDTAVYYCAASYGSNWSTLRHQRRNEYDAWGQGTQVAVSGGGGSGPPCPPCPAPEFLGGPSVFLFPPKPKDTLMISRTPEVTCVVVDVSQEDPEVQFNWYVDGVEVHNAKTKPREEQFNSTYRVVSVLTVLHQDWLNGKEYKCKVSNKGLPSSIEKTISKAKGQPREPQVYTLPPCQEEMTKNQVSLWCLVKGFYPSDIAVEWESNGQPENNYKTTPPVLDSDGSFFLYSRLTVDKSRWQEGNVFSCSVMHEALHNHYTQKSLSLSLGK
chain 2: EVQLLESGGGLVQPGGSLRLSCAASGFRFGNYDMAWVRQAPGKRYEWVSSIDTGGDITHYADSVKGRFTISRDNAKNTLYLQMNSLRPEDTAEYWCATDEEYALGPNEFDYYGQGTLVTVSGGGGSGPPCPPCPAPEFLGGPSVFLFPPKPKDTLMISRTPEVTCVVVDVSQEDPEVQFNWYVDGVEVHNAKTKPREEQFNSTYRVVSVLTVLHQDWLNGKEYKCKVSNKGLPSSIEKTISKAKGQPREPQVCTLPPSQEEMTKNQVSLSCAVKGFYPSDIAVEWESNGQPENNYKTTPPVLDSDGSFFLVSRLTVDKSRWQEGNVFSCSVMHEALHNHYTQKSLSLSLGK
B6: NIgG4B1A2(G4S)2 (Fc fusion)
chain 1: QVQLQESGGGLVQTGGSLRLSCAVHGRTFSNTGMGWFRQAPGNERQFVAIISPSGTSTYYADSVKGRFTISRDPAKNTVYLQMNSLKMDDTAVYYCAASYGSNWSTLRHQRRNEYDAWGQGTQVAVSGGGGSGGGGSGPPCPPCPAPEFLGGPSVFLFPPKPKDTLMISRTPEVTCVVVDVSQEDPEVQFNWYVDGVEVHNAKTKPREEQFNSTYRVVSVLTVLHQDWLNGKEYKCKVSNKGLPSSIEKTISKAKGQPREPQVYTLPPCQEEMTKNQVSLWCLVKGFYPSDIAVEWESNGQPENNYKTTPPVLDSDGSFFLYSRLTVDKSRWQEGNVFSCSVMHEALHNHYTQKSLSLSLGK
chain 2: EVQLLESGGGLVQPGGSLRLSCAASGFRFGNYDMAWVRQAPGKRYEWVSSIDTGGDITHYADSVKGRFTISRDNAKNTLYLQMNSLRPEDTAEYWCATDEEYALGPNEFDYYGQGTLVTVSGGGGSGGGGSGPPCPPCPAPEFLGGPSVFLFPPKPKDTLMISRTPEVTCVVVDVSQEDPEVQFNWYVDGVEVHNAKTKPREEQFNSTYRVVSVLTVLHQDWLNGKEYKCKVSNKGLPSSIEKTISKAKGQPREPQVCTLPPSQEEMTKNQVSLSCAVKGFYPSDIAVEWESNGQPENNYKTTPPVLDSDGSFFLVSRLTVDKSRWQEGNVFSCSVMHEALHNHYTQKSLSLSLGK
B7: NIgG4B1A2(RS) (Fc fusion)
chain 1: QVQLQESGGGLVQTGGSLRLSCAVHGRTFSNTGMGWFRQAPGNERQFVAIISPSGTSTYYADSVKGRFTISRDPAKNTVYLQMNSLKMDDTAVYYCAASYGSNWSTLRHQRRNEYDAWGQGTQVAVSRSGPPCPPCPAPEFLGGPSVFLFPPKPKDTLMISRTPEVTCVVVDVSQEDPEVQFNWYVDGVEVHNAKTKPREEQFNSTYRVVSVLTVLHQDWLNGKEYKCKVSNKGLPSSIEKTISKAKGQPREPQVYTLPPCQEEMTKNQVSLWCLVKGFYPSDIAVEWESNGQPENNYKTTPPVLDSDGSFFLYSRLTVDKSRWQEGNVFSCSVMHEALHNHYTQKSLSLSLGK
chain 2: EVQLLESGGGLVQPGGSLRLSCAASGFRFGNYDMAWVRQAPGKRYEWVSSIDTGGDITHYADSVKGRFTISRDNAKNTLYLQMNSLRPEDTAEYWCATDEEYALGPNEFDYYGQGTLVTVSRSGPPCPPCPAPEFLGGPSVFLFPPKPKDTLMISRTPEVTCVVVDVSQEDPEVQFNWYVDGVEVHNAKTKPREEQFNSTYRVVSVLTVLHQDWLNGKEYKCKVSNKGLPSSIEKTISKAKGQPREPQVCTLPPSQEEMTKNQVSLSCAVKGFYPSDIAVEWESNGQPENNYKTTPPVLDSDGSFFLVSRLTVDKSRWQEGNVFSCSVMHEALHNHYTQKSLSLSLGK
B8: CIgE4A1A1(GS3) (Fc fusion)
chain 1: GPPCPPCPAPEFLGGPSVFLFPPKPKDTLMISRTPEVTCVVVDVSQEDPEVQFNWYVDGVEVHNAKTKPREEQFNSTYRVVSVLTVLHQDWLNGKEYKCKVSNKGLPSSIEKTISKAKGQPREPQVYTLPPCQEEMTKNQVSLWCLVKGFYPSDIAVEWESNGQPENNYKTTPPVLDSDGSFFLYSRLTVDKSRWQEGNVFSCSVMHEALHNHYTQKSLSLSLGKGGGGSGGGGSGGGGSEVQLLESGGGLVQPGGSLRLSCAASGFTFGNYDMAWVRQAPGKRPEWVSSIDTGGDITHYADSVKGRFTISRDNAKNTLYLQMNSLRPEDTAVYWCATDEEYALGPNEFDYYGQGTLVTVSS
chain 2: B8 chain 1 with Y127C, C132S, W144S, L146A, Y185V
notes: also called CIgG4A1A1(G4S)3

Changes are numbered by the printed parent chain. Names may count otherwise. Some results are limits rather than exact numbers.

The target of the test is T1, recombinant human IgE (human, UniProt P01854-1 1-428).
T1 construct: made in-house (ALK); preloaded on immobilised FcεRIα in the displacement ELISA
T1 sequence (P01854 other isoform, or with tags, fused parts or gaps): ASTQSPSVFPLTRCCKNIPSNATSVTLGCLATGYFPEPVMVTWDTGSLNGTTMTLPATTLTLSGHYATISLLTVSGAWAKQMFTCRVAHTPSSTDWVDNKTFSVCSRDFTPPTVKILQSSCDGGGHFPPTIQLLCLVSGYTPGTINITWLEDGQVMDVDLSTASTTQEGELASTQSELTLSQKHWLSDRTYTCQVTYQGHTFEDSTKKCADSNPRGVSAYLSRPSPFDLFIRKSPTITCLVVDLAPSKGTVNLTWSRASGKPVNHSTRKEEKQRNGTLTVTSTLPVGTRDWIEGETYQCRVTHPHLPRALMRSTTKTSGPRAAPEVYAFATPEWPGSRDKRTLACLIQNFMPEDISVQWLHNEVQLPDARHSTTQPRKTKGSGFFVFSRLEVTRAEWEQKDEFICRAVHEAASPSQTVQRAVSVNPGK
The test can be described thus: IgE-FcεRIα displacement ELISA. An outline of the steps: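 Streptavidin-coated plates carried site-specifically biotinylated recombinant human FcεRIα, loaded with recombinant human IgE at 13 ng/ml. sdAbs in a pM–μM series were added for 1 h, and displaced IgE was washed off. Percent displacement was the signal reduction versus the no-sdAb control, giving EC50 and maximal effect.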
B1: the EC50 was determined as 310 nM.
Take B2: the EC50 came to 145 nM and the Max effect was roughly 70%.
Turning to B3, the Max effect is less than 20%.
With B4, the Max effect was roughly 40%.
On the same count and under the same terms, next, B5: greater than 95%; B6: greater than 95%.
As for B7, the Max effect was greater than 95%.
Regarding B8, the EC50 amounted to 36 nM and the Max effect was roughly 85%.
